From PMC8142856 (Cell, 2021)

B1: nsp9-nsp10 fusion protein (other)
chain: NNELSPVALRQMSCAAGTTQTACTDDNALAYYNTTKGGRFVLALLSDLQDLKWARFPKSDGTGTIYTELEPPCRFVTDTPKGPKVKYLYFIKGLNNLNRGMVLGSLAATVRLQAGNATEVPANSTVLSFCAFAVDAAKAYKDYLASGGQPITNCVKMLCTHTGTGQAITVTPEANMDQESFGGASCCLYCRCHIDHPNPKGFCDLKGKYVQIPTTCANDPVGFTLKNTVCTVCGMWKGYGCSCDQLREPMLQ
B2: template-primer RNA (dsRNA)
RNA 1: CAUGCCAUGGCCUCUAAAAUGUCAGCUGCUCCCUAGCAUGCUACUACCGCGUAGCAUG
RNA 2: GCGGUAGUAGCAUGCUAGGGAGCAG
B3: SARS-CoV-2 nsp14 (enzyme)
chain: AENVTGLFKDCSKVITGLHPTQAPTHLSVDTKFKTEGLCVDIPGIPKDMTYRRLISMMGFKMNYQVNGYPNMFITREEAIRHVRAWIGFDVEGCHATREAVGTNLPLQLGFSTGVNLVAVPTGYVDTPNNTDFSRVSAKPPPGDQFKHLIPLMYKGLPWNVVRIKIVQMLSDTLKNLSDRVVFVLWAHGFELTSMKYFVKIGPERTCCLCDRRATCFSTASDTYACWHHSIGFDYVYNPFMIDVQQWGFTGNLQSNHDLYCQVHGNAHVASCDAIMTRCLAVHECFVKRVDWTIEYPIIGDELKINAACRKVQHMVVKAALLADKFPVLHDIGNPKAIKCVPQADVEWKFYDAQPCSDKAYKIEELFYSYATHSDKFTDGVCLFWNCNVDRYPANSIVCRFDTRVLSNLNLPGCDGGSLYVNKHAFHTPAFDKSAFVNLKQLPFFYYSDSPCESHGKQVVSDIDYVPLKSATCITRCNLGGAVCRHHANEYRLYLDAYNMMISAGFSLWVYKQFDTYNLWNTFTRLQ

Assays:
[1] = target: B3; assay: SEC
[2] = target: SARS-CoV-2 nsp12 (SARS-CoV-2, UniProt P0DTD1); assay: cryo-EM structure
[3] = target: nsp12 (RdRp with NiRAN);nsp7;nsp8;nsp9;nsp13 helicase;nsp10;nsp14 (ExoN / N7-MTase) (SARS-CoV-2;SARS-CoV-2;SARS-CoV-2;SARS-Co …, UniProt P0DTD1;P0DTD1;P0DTD1;P0DTD1;P0DTD1;P0DTD1;P0DTD1 …, ||||||); assay: cryo-EM structure
[4] = target: SARS-CoV-2 nsp13 (SARS-CoV-2, UniProt P0DTD1 5325-5925); assay: cryo-EM structure

B1
binding result [1]: binds | binding result [2]: binds

B2
binding result [3]: binds

B3
binding result [2]: binds | binding result [4]: binds
